Laboratory results reported in article PMC11948038, “Evolutionary Pro‐To‐Thr Mutation in the Intrinsically Disordered Domain of ANP32 Family Members Modulates Their Target Binding Modes” (Advanced Science, 2025).

Key:
histone H3 = assay: Coimmunoprecipitation of c-myc-ANP32A/B with histone H3; type: binding; details: anti-c-myc, Western blot; representative of three experiments
Method: HEK293T cells were transfected with a plasmid encoding ANP32A/b-c-myc. 24 h after transfection, cells were collected for lysates preparation in buffer containing 20 mM Tris-HCl pH 7.5, 100 mM NaCl, 0.5% NP40, 0.1 mM PMSF and cOmplete™. Cells were lysed by sonication and precleared by incubation with sepharose-A beads (GE Healthcare, GE17-5280-01) for 1 h at 4 °C. The lysates were then incubated with anti-c-myc (see Pull-down assays) over night at 4 °C and subsequently with sepharose-A beads (GE Healthcare, GE17-5280-01) for 1 h at room temperature with rotation. Following 6 washes with PBS, the samples were resuspended in SDS loading buffer and analyzed by western blotting.

cytochrome c [1] = biological target: T1, cytochrome c (Homo sapiens, UniProt P99999); details: Cc-ANP32B, low ionic strength; ref [31]; cited from earlier work
T1 construct: obtained by immunizing male rabbits with full-length recombinant Cc; made in house; host or cells: E. coli BL21 (DE3)
T1 sequence (P99999 whole entry): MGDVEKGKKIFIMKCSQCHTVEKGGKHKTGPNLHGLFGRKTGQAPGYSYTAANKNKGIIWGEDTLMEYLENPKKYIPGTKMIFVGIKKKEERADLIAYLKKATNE
Excerpt: Although both ANP32A and ANP32B interact with Cc via their C‐terminal region, there are remarkable differences in the thermodynamic parameters and binding surfaces between full‐length ANP32A and ANP32B in complex with Cc (Figure 3C,F).^[ [31] ^] […] These di ...

cytochrome c [2] = biological target: T1, cytochrome c; assay: ITC titration of full-length ANP32A or ANP32A1-167 with reduced Cc; type: binding; details: low ionic strength (25 mM)
Method: Isothermal titration calorimetry (ITC) experiments were performed using a Nano ITC Low Volume instrument (TA Instruments, USA). The reference cell was filled with distilled water. Titration experiments between reduced Cc and ANP32A or ANP32A1‐167 consisted of 17 injections of 2.91 µL of a 400 µM reduced Cc solution into the sample cell containing 50 µM ANP32A construct. Both Cc and ANP32A proteins were dialyzed against 10 mM sodium phosphate buffer pH 7.4. Assays performed at moderate ionic strength used the same experimental setup, but proteins were dialyzed against 20 mM sodium phosphate pH 7.4 with 50 mM NaCl. […] ANP32A, ANP32A230‐249 and ANP32B232‐251 titration data were analyzed using Origin 7.0 (OriginLab), employing a single‐ligand binding site model or a two‐ligand binding sites model. […] ANP32A1‐167 titration data was processed and analyzed using NanoAnalyze software (TA instruments).
ITC experiments were performed using a Nano ITC Low Volume instrument (TA Instruments, USA). […] ANP32A, ANP32A230-249 and ANP32B232-251 titration data was analyzed using Origin 7.0 (OriginLab), employing a single ligand binding site model or a two ligand binding sites model. […] ANP32A1-167 titration data were processed and analyzed using NanoAnalyze software (TA instruments).

15N-labeled Cc = assay: NMR titration (1H-15N HSQC) of 15N Cc with ANP32A or ANP32A1-167; type: binding; details: low ionic strength; 25 °C
Method: NMR titrations of 30 µM ^15N reduced Cc with ^14N ANP32A constructs were followed by 1D ^1H and 2D ^1H-^15N heteronuclear single quantum correlation (HSQC) spectra on a Bruker Avance-III 600 MHz equipped with a cryoprobe at 25 °C. ^15N-labelled reduced Cc (in 10 mM sodium phosphate buffer, pH 7.4) was titrated with increasing amounts of ^14N ANP32A dialyzed against the same buffer. Reduced ^15N Cc and ^14N ANP32A1-167 construct were titrated in 5 mM sodium phosphate buffer pH 6.4. To maintain the redox state of Cc and to adjust the lock signal on the NMR spectrometer, 0.1 mM of sodium ascorbate and 10% of D2O were added, respectively. Data were acquired and processed using TopSpin NMR 3.5pl7 software (Bruker).
Line broadening and chemical-shift perturbation analysis were performed using the Sparky 3 NMR assignment tool (T.D. Goddard and D.G. Kneller, University of California San Francisco, USA). Assignment of ANP32A230-249 and ANP32B232-251 peptides was performed using NMRFAM-SPARKY software distribution (National Magnetic Resonance Facility at Madison) and further imported to CCPNMR ^[1], whereby distance restraints were calculated using its built-in module.

B1: ANP32B: acidic leucine‐rich nuclear phosphoprotein 32 B, histone chaperone, paralog of ANP32A (protein, UniProt Q92688 1-251, looked up)
Acidic leucine-rich nuclear …: MDMKRRIHLELRNRTPAAVRELVLDNCKSNDGKIEGLTAEFVNLEFLSLINVGLISVSNLPKLPKLKKLELSENRIFGGLDMLAEKLPNLTHLNLSGNKLKDISTLEPLKKLECLKSLDLFNCEVTNLNDYRESVFKLLPQLTYLDGYDREDQEAPDSDAEVDGVDEEEEDEEGEDEEDEDDEDGEEEEFDEEDDEDEDVEGDEDDDEVSEEEEEFGLDEEDEDEDEDEEEEEGGKGEKRKRETDDEGEDD
Histone H3
  coimmunoprecipitation of histone H3, in words: H3 binds both ANP32 proteins in a similar manner
Cytochrome c [1]
  Kd: ~9.5 µM
  –TΔS: 3.9 kcal/mol

B2: ANP32A1‐167: ANP32A construct lacking its LCAR (protein)
chain: MEMGRRIHLELRNRTPSDVKELVLDNSRSNEGKLEGLTDEFEELEFLSTINVGLTSIANLPKLNKLKKLELSDNRVSGGLEVLAEKCPNLTHLNLSGNKIKDLSTIEPLKKLENLKSLDLFNCEVTNLNDYRENVFKLLPQLTYLDGYDRDDKEAPDSDAEGYVEGL
Cytochrome c [2]
  binding to Cc by ITC, in words: unable to interact with Cc even at low ionic strength
15N-labeled Cc
  chemical-shift perturbations of Cc amide signals, in words: no significant chemical‐shift perturbations
